Results as given in the supplement of paper PMC9170038.

System: MS2 coat protein
Assay: apparent KD of MS2 coat protein; designed switch direction (-1 OFF switch, 1 ON switch): 1; higher = weaker reporter binding
Outline: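 Normalised cluster fluorescence was curve-fitted, and each design's median over clusters is its apparent KD. Before this, SNAP-549-labelled MS2 coat protein was titrated from 0.7 or 1.5 nM, doubling to 3 µM, over RNA switches transcribed on Illumina chips by stalled E. coli RNA polymerase. Titrations had no input, 200 uM small-molecule ligand, or an oligonucleotide input, and steps lasted 0.8–1.5 h (lowest) to 10–20 min (highest).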

[1] = Eterna round: R95, input ligand: FMN 200 uM
[2] = Eterna round: R95, input ligand: microRNA oligo, concentration not stated
[3] = Eterna round: R95, input ligand: none
[4] = input ligand: microRNA oligo, concentration not stated

| Sequence | apparent KD of MS2 coat protein [1] | apparent KD of MS2 coat protein [2] | apparent KD of MS2 coat protein [3] | apparent KD of MS2 coat protein (input ligand: FMN 200 uM) | apparent KD of MS2 coat protein [4] | apparent KD of MS2 coat protein (input ligand: none) |
| --- | --- | --- | --- | --- | --- | --- |
| AACAAUCUAUCUGAGGAUAUCAUGAAAUAAACAUGAGGAUCACCCAUGUGUAGGAAAACUGCAUAUGAGAAGGCAGAUAGAUUGA [salish99_ss2_r3_036] (puzzle: Same State 2) | 31.9 nM | 299 nM | 1330 nM | – | – | – |
| UUGCGGGAUUAAGGAUAUUGAGUACAUAUGUUUAACAUGAGGAUCACCCAUGUGGGUUGCGGUAUCGAGAAGGUAACUUACUAC [salish99_SSNG2_r04_804] (Eterna round: R96, puzzle: Same State NG 2) | – | – | – | 92.9 nM | 79.3 nM | 96.3 nM |
| UAGAGAGGAAGCGAGGAUAUCGUGUUAGGUACAUGAGGAUCACCCAUGUUGUAGGUAGAGGUAGGCGAGAAGGCGCAGGAGAGGA [JR_SS2_Sub092] (puzzle: Same State 2) | 35.6 nM | 37.6 nM | 66.2 nM | – | – | – |
| GGAGCCGGCACUGAGGAUAUUCAUAUUUAAACAUGAGGAUCACCCAUGUAGGCCAGAAGGCCUUGGGAGAAGGCAGGUCGGCUCG [salish99_ss2_r3_076] (puzzle: Same State 2) | 26 nM | 216 nM | 493 nM | – | – | – |
| GGUCGGUCCAACAUGAGGAUCACCCAUGUACCGGAAACGGCAUAGGAUAUCUGUCCGAAAAGGUCAGAGAAGGGUGAACCGACC [Fiskers NG3ss - 72] (Eterna round: R96, puzzle: Same State NG 3) | – | – | – | 421 nM | 586 nM | 229 nM |
| CACAUGAGGAUCACCCAUGUGAGGCGGCAAUAAAACCGCGCACAGGAUAUAGCGCUAAGAAUGCGCUAGAAGGGUGAUUAGAAC [Esenla] (Eterna round: R96, puzzle: Same State NG 3) | – | – | – | 746 nM | 10.4 nM | 39.2 nM |
| CUUUCUCUUGCAGGAUAUCCUAGUCUUCGGUUAGGAGAAGGGCAAGGAAAUUUGCUAAGCAAGUCUGUAACAGAGAUCCUCCUC [pwkr ssNG1 F9.1] (Eterna round: R96, puzzle: Same State NG 1) | – | – | – | 30.8 nM | 313 nM | 37.9 nM |
| CCGGAUAAUGGAGGAUAUGGAGCCUUAUUGGCUCCAGAAGGCUAACAUGAGGAUCACCCAUGUAAUCCGGCGGUCAAUAGACCG [Eli NG1ss - 65] (Eterna round: R96, puzzle: Same State NG 1) | – | – | – | 12 nM | 15 nM | 25.5 nM |
| GCGGAACAGGCCGACAUGAGGAUCACCCAUGUGGCCUCAUGUCAGGAUAUCGGGAAGAAGAAAACCGAGAAGGGACGGUGACGC [AK SSNG3-V2-33.2] (Eterna round: R96, puzzle: Same State NG 3) | – | – | – | 23.4 nM | 9.43 nM | 10.1 nM |
| GCUGCAAGGGCAGGAUAUGGGUCCAGAGCGCAAGUGCGCCCUGGUACAUGAGGAUCACCCAUGUCCCAGAAGGGCCCAAGCAGC [Vetierribi] (Eterna round: R96, puzzle: Same State NG 2) | – | – | – | 12.9 nM | 68.9 nM | 87.6 nM |
| GCCGCAAGGGCAGGAUAUGGGUCCAGAGUGCAAAUACACUCUGGUACAUGAGGAUCACCCAUGUCCCAGAAGGGCCCAAGCGGC [Teerledion] (Eterna round: R96, puzzle: Same State NG 2) | – | – | – | 13.9 nM | 71 nM | 127 nM |
| AUUAAUUAAUUAAUACAUGAGGAUCACCCAUGUAAUAAGAUCUAGGAUAUCAGCUCGAAUAGAGCUGAGAAGGAGAUCACAUGU [SSNG3/17-A1] (Eterna round: R96, puzzle: Same State NG 3) | – | – | – | – | 31.1 nM | – |
| AUUUUUAAUGCAGGAUAUGAUUAACAUGAGGAUCACCCAUGUGGUGUUGUGAGUAAGGAGAGUGAUCAGAAGGGCAUUUUUGUU [JMF's solution 85] (Eterna round: R96, puzzle: Same State NG 2) | – | – | – | 686 nM | 466 nM | 715 nM |
| UUGUUUCGUCAUUAACAUGAGGAUCACCCAUGUAUCGACUCAAAGGAUAUAUAUGCUUGUUUGCAAUAGAAGGUUGAUUGUUGU [JR_SSNG3_Sub092] (Eterna round: R96, puzzle: Same State NG 3) | – | – | – | – | 28.1 nM | – |
| UGACACACGGCAGGAUAUCGAUUCCAAAGGAAUCGAGAAGGGCCUCAUGUCGUGGAAACGUGACAUGAGGAUCACCCAUGUUGC [Omei SS(NG)1 Cv15] (Eterna round: R96, puzzle: Same State NG 1) | – | – | – | 222 nM | 15.8 nM | 96 nM |
| GUUAAACAUGAGGAUCACCCAUGUCAAUGUAGUCGAGGAUAUGGGCAGCUAUGAGGCGUACUAGAAGGCGAAGAGU [Mat - Same State 1 - Mod of JL - D12] (puzzle: Same State 1) | 106 nM | 196 nM | 280 nM | – | – | – |

| Sequence | apparent KD of MS2 coat protein [1] | apparent KD of MS2 coat protein [2] | apparent KD of MS2 coat protein [3] | apparent KD of MS2 coat protein (input ligand: FMN 200 uM) | apparent KD of MS2 coat protein [4] | apparent KD of MS2 coat protein (input ligand: none) |
| --- | --- | --- | --- | --- | --- | --- |
| GCUAGAAAUAAAGCCAACAUGAGGAUCACCCAUGUAUGUUGGUAGGAUAUCGUAUGCAAAGCAUACGAGAAGGGCUAAUCUAGC [Mat - Same State NG 3 - JL Mod - D66] (Eterna round: R96, puzzle: Same State NG 3) | – | – | – | 90.8 nM | 57.4 nM | 90.2 nM |
| CGGUGAGAGACAGGAUAUCGAGCCUAACGAGGCCGAGAAGGGUCGCCCGAAGCGACCGACAUGAGGAUCACCCAUGUAGAAAGA [Eternabot solution 21] (Eterna round: R96, puzzle: Same State NG 1) | – | – | – | 34.2 nM | 30 nM | 40.4 nM |
| GAGUGGUGGAGAGGAUAUACAUUGAUAUUCACUGUAGAAGGUUCUAACAUGAGGAUCACCCAUGUAGGACUAUUCCUGAGAGUU [Parity 54 - Jieux - Same State NG 1] (Eterna round: R96, puzzle: Same State NG 1) | – | – | – | 11 nM | 8.99 nM | 14.7 nM |
| UGGUACAUGGGAGGAUAUCAUGUAGAAACAUGAGGAUCACCCAUGUUGAUGGAGACAUCGGAGAUUGAGAAGGCCCAUGUACCU [JL SSNG1 3.57] (Eterna round: R96, puzzle: Same State NG 2) | – | – | – | 15.6 nM | 33.6 nM | 46 nM |
| GUAAAACAUGAGGAUCACCCAUGUCAAUGUAGUCGAGGAUAUGGGUAGCUAUGAGGCGUACUAGAAGGCGAAAAGU [Mat - Same State 1 - Mod of JL - D18] (puzzle: Same State 1) | 91.8 nM | 85.5 nM | 248 nM | – | – | – |
| UGUUGUAUUACAGGAUAUCUAUUGUUUUUGUUUAGAGAAGGGUAUUCACAUGAGGAUCACCCAUGUAUAUACGAGGAAGUUGUG [JMF's solution 80] (Eterna round: R96, puzzle: Same State NG 1) | – | – | – | – | 45 nM | – |
| AAACCACAUGAGGAUCACCCAUGUGAUAAAAGCAUAGGAUAUCUGGAUGUGAGAGGCGGCAGAGAAGGAUGCACGC [Laoror] (puzzle: Same State 1) | – | 58.2 nM | – | – | – | – |
| UGGCUCAGACGAGGAUAUGGUCAUGGCGCUUCGGCGCAUACAUGAGGAUCACCCAUGUAGGGUGAUCAGAAGGCGUCUGAGCCA [SSNG2/9-A2] (Eterna round: R96, puzzle: Same State NG 2) | – | – | – | 87.2 nM | 573 nM | 715 nM |
| GUUCGGAAUCGAGCUGACAUGAGGAUCACCCAUGUUAGUGGGAAGGAUAUGGUACAGAAACUGUACCAGAAGGUCCUGCUGUCU [MOD2 Omei's SS(NG) 3 AV9] (Eterna round: R96, puzzle: Same State NG 3) | – | – | – | 38.2 nM | 57.2 nM | 59.5 nM |
| GUAGCAUGCAGGCAGGAUAUUCAUAUUAAAACAUGAGGAUCACCCAUGUAGGCCAGAAGGCCUUGGGAGAAGGGCCACAUGCUAC [Xeonanis - 17] (puzzle: Same State 2) | 36.9 nM | 595 nM | 800 nM | – | – | – |
| UGAAUAGUCACAGGAUAUCAUGCGAAAAUUGCGUGAGAAGGGUGGGUGUUGUGCUCAAAGUGCUACAUGAGGAUCACCCAUGUU [SameState NG1 #41] (Eterna round: R96, puzzle: Same State NG 1) | – | – | – | 1540 nM | 638 nM | 1210 nM |
| UGCUUCGUGUAAGGAUAUGCUGCCGUUUCGGCUGCAGAAGGUACUAUAAUACAUGAGGAUCACCCAUGUCUCUCGCUUUGCGGG [salish99_SSng1_r04_305] (Eterna round: R96, puzzle: Same State NG 1) | – | – | – | – | 42.1 nM | – |
| GUUAGGAAUCUAGCUGACAUGAGGAUCACCCAUGUUAGUGGGAAGGAUAUGGUACAGAAACUGUACCAGAAGGUCUUACUGUCU [MOD Omei's SS(NG) 3 AV9] (Eterna round: R96, puzzle: Same State NG 3) | – | – | – | 23.8 nM | 21.4 nM | 25.9 nM |
| UGGUACAUGGGAGGAUAUGGGCAUGAGACAUGAGGAUCACCCAUGUUAUAAAAGCCGAGAGGCAUCUAGAAGGCCCAUGUACCU [JL SSNG1 3.91] (Eterna round: R96, puzzle: Same State NG 2) | – | – | – | 15.2 nM | 95.2 nM | 139 nM |
| GUUACAUGAGGAUCACCCAUGUAUGUGUGGGAGUAAGUGUCUUAGGAUAUCUAUGAUUUAAUUAAAGAGAAGGAAGAUUGUUGU [JMF's solution 83] (Eterna round: R96, puzzle: Same State NG 3) | – | – | – | 154 nM | 85 nM | 103 nM |
